In patent publication US20240228596A1:

molecular target: SARS-COV-2 Wuhan WT Spike_del18 on VSV-delG pseudotyped particles (SARS-COV-2) (UniProt P0DTC2); experiment: cell-based or functional assay

| Substance | IC50 ug/ml, pseudoneutralization assay [µg/mL] |
| --- | --- |
| pX-B001_GS-VHH72-h1-E1D-S56A_(G4S)6_VHH72-h1-E1D-S56A_His8 | 0.169 |
| pX-B002_GS-VHH72-h1-E1D-S56A_(G4S)_VHH72-h1-E1D-S56A_His8 | 0.108 |
| pX-B003_GS-VHH72-h1-E1D-S56A_(G4S)4_VHH72-h1-E1D-S56A_His8 | 0.361 |
